Measurements as given in publication PMC4838342.

Legend:
mCherry-LacI-H3 = mCherry-LacI-H3 (UniProt P68431); assay: F2H (live cell imaging, recruitment to LacO array); conditions: n=20; parent: est. 1.7; read off a plot
MBP H3 116–135 (human) = assay: ITC; MicroCal iTC200; sNASP (180, 150, 100 μM) in the syringe injected into MBP H3 116–135 (30, 15, 10 μM) in the cell; 20 mM Hepes-KOH pH 7.5, 200 mM sodium chloride; one-site model

Row | Substance | other: enrichment ratio (mCherry-LacI-H3) | Kd (MBP H3 116–135 (human)) [nM] | stoichiometry N (MBP H3 116–135 (human))
1 | EGFP-sNASP (from UniProt P49321-2) E211A; E215A; E217A | 1.2 | – | –
2 | EGFP-sNASP (from UniProt P49321-2) E246A; Y249S; L253S | 1.1 | – | –
3 | sNASP (from UniProt P49321-2 1-449) (natural protein; other documents disagree on this pair) | – | 47 to 68 | 1
